Data published in PMC10783653 (Cell reports. Physical science, 2023).

Columns and labels:
RET M918T = RET M918T (Homo sapiens, UniProt P07949, M918T); assay: LIMS-Kinase assay, RET M918T
EGFR L858R = EGFR L858R (Homo sapiens, UniProt P00533, L858R); type: biochemical; conditions: enzyme optimization; 2.5 nM EGFR L858R, 1 μM peptide, 100 μM ATP, 60 min

Sequence of RET M918T (P07949 29-1114 M918T): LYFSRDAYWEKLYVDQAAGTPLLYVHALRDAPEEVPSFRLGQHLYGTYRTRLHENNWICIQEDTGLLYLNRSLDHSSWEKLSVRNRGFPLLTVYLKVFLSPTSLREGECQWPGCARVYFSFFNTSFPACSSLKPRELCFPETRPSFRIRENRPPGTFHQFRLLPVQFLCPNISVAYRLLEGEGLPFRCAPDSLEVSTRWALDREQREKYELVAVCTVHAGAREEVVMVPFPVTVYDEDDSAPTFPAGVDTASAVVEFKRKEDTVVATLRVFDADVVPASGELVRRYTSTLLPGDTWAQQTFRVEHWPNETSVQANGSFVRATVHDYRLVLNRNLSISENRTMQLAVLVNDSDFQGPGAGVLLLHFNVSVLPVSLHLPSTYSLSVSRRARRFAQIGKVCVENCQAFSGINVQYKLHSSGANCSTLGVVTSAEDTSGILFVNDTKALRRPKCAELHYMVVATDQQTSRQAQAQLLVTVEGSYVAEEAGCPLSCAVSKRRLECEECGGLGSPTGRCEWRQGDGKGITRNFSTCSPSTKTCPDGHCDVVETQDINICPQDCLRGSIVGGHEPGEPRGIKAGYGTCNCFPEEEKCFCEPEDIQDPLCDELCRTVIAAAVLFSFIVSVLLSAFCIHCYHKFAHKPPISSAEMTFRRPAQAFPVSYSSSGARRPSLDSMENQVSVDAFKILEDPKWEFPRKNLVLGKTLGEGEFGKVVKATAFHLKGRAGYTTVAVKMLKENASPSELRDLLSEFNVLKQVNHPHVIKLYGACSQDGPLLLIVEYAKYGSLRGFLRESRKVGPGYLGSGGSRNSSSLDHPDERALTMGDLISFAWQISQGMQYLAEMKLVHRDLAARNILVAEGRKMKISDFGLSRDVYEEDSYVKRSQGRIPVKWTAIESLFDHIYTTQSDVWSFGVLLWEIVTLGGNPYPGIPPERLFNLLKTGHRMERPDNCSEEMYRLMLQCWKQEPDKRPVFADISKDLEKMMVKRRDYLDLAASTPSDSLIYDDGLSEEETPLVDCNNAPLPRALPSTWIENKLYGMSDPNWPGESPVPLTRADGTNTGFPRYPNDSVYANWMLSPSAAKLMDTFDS

`COc1ccc(CN2C3CC2CN(c2ccc(-c4cc(OCC(C)(C)O)cn5ncc(C#N)c45)cn2)C3)cn1` [selpercatinib, reference compound] was tested, and the “potency in LIMS-Kinase assay compared to previously reported value” (RET M918T; 0.7 nM vs. […]) was “more than six times higher”.
With “MS-Csktide1: kinase substrate peptide, sequence KEEIYFFF” the substrate converted (EGFR L858R) was “approximately 20%”.
In the case of “MS-Csktide2: kinase substrate peptide, sequence KEEIYFFFG”, the substrate converted (RET M918T; enzyme optimization, 2.5 nM RET M918T, 1 μM peptide, 100 μM ATP, 60 min) was “Approximately 39%”.
